Values quoted from earlier work in PMC8985225.

Target: CaMKII kinase domain (Caenorhabditis elegans) (UniProt O62305)

## CaMKII kinase domain (from UniProt O62305)
  Kd: > 100 µM
